Reference: paper PMC7907217 (Biochemistry and Biophysics Reports, 2021)
Values joined by “and” are separate entries in the source; they are usually repeats but may differ in a detail not shown here. Identical values can stand only once.

Experiments:
[1] = molecular target: T1, 3D7 PfAMA1 (DI + DII) (Plasmodium falciparum 3D7, UniProt Q7KQK5 104-438); experiment: ITC
T1 sequence (looked up): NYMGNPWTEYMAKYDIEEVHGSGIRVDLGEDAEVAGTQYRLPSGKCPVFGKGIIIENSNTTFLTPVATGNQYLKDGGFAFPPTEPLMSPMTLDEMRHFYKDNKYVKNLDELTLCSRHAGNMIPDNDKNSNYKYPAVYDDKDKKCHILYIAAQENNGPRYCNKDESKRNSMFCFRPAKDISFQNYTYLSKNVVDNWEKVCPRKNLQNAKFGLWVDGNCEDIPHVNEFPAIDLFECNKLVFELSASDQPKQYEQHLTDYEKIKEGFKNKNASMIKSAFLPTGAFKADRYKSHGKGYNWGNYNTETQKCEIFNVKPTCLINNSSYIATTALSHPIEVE

[2] = molecular target: T1, 3D7 PfAMA1 (DI + DII); experiment: SPR

DITQQAKDIGAGPVASCFTTRMSPPQQICLNSVVNTALS (peptide, UniProt Q8IKV6 2021-2059, looked up) [PfRON2ed peptide (Asp2021-Ser2059)]
Kd [1]: 122 nM and 93.5 to 137 nM | Kd [2]: 21.9 ± 1.89 nM
